Source: article PMC8945619

Molecular target: PECAM-1 (purified, immobilised on the sensor chip) (UniProt P16284)
Assay: SPR

Sequence of soluble CD177 in complex with proteinase 3 (sCD177/PR3) (Q8N6Q3 22-408): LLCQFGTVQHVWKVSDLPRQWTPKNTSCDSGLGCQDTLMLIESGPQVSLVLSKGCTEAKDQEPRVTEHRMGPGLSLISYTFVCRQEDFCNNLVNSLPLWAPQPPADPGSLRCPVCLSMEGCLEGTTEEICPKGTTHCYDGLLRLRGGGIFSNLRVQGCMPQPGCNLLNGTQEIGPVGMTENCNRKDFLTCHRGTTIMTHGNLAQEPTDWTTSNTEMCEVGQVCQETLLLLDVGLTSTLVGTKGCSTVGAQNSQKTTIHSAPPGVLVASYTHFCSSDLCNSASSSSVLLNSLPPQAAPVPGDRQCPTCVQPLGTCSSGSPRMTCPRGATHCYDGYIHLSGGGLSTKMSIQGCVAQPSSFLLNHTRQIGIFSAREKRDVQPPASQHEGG
Sequence of soluble CD177 in complex with proteinase 3 (sCD177/PR3) (P24158 28-248): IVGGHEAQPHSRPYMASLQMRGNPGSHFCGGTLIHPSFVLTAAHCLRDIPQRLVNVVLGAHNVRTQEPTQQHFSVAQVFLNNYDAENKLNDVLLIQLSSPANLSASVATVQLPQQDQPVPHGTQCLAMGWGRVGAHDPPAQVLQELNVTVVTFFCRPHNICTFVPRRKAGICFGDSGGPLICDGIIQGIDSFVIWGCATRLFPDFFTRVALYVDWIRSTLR
Sequence of recombinant proteinase 3 (rPR3) (P24158 28-248): as above

Substance	Kd [nM]
soluble CD177 in complex with proteinase 3 (sCD177/PR3) (from UniProt Q8N6Q3 22-408; P24158 28-248)	7.39
recombinant proteinase 3 (rPR3) (from UniProt P24158 28-248) (enzyme)	49.8
